EC50 and Kd data for five molecules are collected here from patent publication US20250002605A1 (WUHAN YZY BIOPHARMA, published 2025).

In assay [1] the target is T1, human EpCAM on the cell surface (human, UniProt P16422 24-314).
T1 construct: whole, on cells; also called EpCAM of cells; HCT116 cells
T1 sequence (looked up): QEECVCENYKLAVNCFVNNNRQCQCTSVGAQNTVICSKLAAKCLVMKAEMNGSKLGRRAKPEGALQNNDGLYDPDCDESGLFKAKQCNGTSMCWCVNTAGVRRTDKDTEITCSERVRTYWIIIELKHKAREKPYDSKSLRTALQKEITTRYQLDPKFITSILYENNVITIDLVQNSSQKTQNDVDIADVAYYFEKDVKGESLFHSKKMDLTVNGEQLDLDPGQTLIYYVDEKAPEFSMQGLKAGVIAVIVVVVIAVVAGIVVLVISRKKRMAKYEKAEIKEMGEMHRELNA
The assay is described as follows: flow cytometry (FACS) on HCT116 cells, PE anti-human IgG Fc detection. A general note: A flow cytometer gives signals particle by particle.

Assay [2] deals with human CD3 antigen (SB, Cat: CT038-H2508H) (human, UniProt P07766 23-126; P04234 22-105). The assay is described as follows: SPR (Biacore T200), antigen amine-coupled on CM5, antibody as analyte, 1:1 fit; D0 sample.
Assay [3] addresses T2, human EpCAM antigen (SB, Cat: 10694-H08H) (human, UniProt P16422 24-265).
T2 construct: Bought antigen immobilised on a CM5 chip
T2 sequence (looked up): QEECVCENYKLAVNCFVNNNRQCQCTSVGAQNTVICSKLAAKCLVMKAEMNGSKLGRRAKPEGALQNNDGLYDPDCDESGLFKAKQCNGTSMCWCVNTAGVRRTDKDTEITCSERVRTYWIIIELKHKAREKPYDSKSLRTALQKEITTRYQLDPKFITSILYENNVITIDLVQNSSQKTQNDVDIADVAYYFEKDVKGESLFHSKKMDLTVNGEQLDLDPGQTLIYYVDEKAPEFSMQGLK
The description is as above.

B1: M700 monoclonal antibody (antibody, human IgG1, kappa, V domains shown)
VH: VQLLEQSGAELVRPGTSVKISCKASGYAFTNYWLGWVKQRPGHGLEWIGDIFPGSGNIHYNEKFKGKATLTADKSSSTAYMQLSSLTFEDSAVYFCARLRNWDEPMDYWGQGTTVTVSS
VL: ELVMTQSPSSLTVTAGEKVTMSCKSSQSLLNSGNQKNYLTWYQQKPGQPPKLLIYWASTRESGVPDRFTGSGSGTDFTLTISSVQAEDLAVYYCQNDYSYPLTFGAGTKLEIKR
notes: also called anti-EpCAM monoclonal antibody control
Broadly, the EC50 is the midpoint of the concentration-response curve. In assay [1], B1 registered a concentration giving a half-maximal response (EC50) of 1.78 nM.

B2: M701C (bispecific antibody, human IgG1, kappa)
light: ELVMTQSPSSLTVTAGEKVTMSCKSSQSLLNSGNQKNYLTWYQQKPGQPPKLLIYWASTRESGVPDRFTGSGSGTDFTLTISSVQAEDLAVYYCQNDYSYPLTFGAGTKLEIKRTVAAPSVFIFPPSDEQLKSGTASVVCLLNNFYPREAKVQWKVDNALQSGNSQESVTEQDSKDSTYSLSSTLTLSKADYEKHKVYACEVTHQGLSSPVTKSFNRGEC
heavy: EVQLLEQSGAELVRPGTSVKISCKASGYAFTNYWLGWVKQRPGHGLEWIGDIFPGSGNIHYNEKFKGKATLTADKSSSTAYMQLSSLTFEDSAVYFCARLRNWDEPMDYWGQGTTVTVSSASTKGPSVFPLAPSSKSTSGGTAALGCLVKDYFPEPVTVSWNSGALTSGVHTFPAVLQSSGLYSLSSVVTVPSSSLGTQTYICNVNHKPSNTKVDKKVEPKSCDKTHTCPPCPAPELLGGPSVFLFPPKPKDTLMISRTPEVTCVVVDVSHEDPEVKFNWYVDGVEVHNAKTKPREEQYNSTYRVVSVLTVLHQDWLNGKEYKCKVSNKALPAPIEKTISKAKGQPREPQVYTLPPSRDELTKNQVSLWCLVKGFYPSDIAVEWESNGQPENNYDTTPPVLDSDGSFFLYSDLTVDKSRWQQGNVFSCSVMHEALHNHYTQKSLSLSPGK
chain: EVQLVESGGGLVQPGGSLRLSCKASGYTFTRYTMHWVRQAPGKGLEWIGYINPSRGYTNYNQKVKDRFTISRDNSKNTAFLQMDSLRPEDTGVYFCARYYDDHYCLDYWGQGTPVTVSSGGGGSGGGGSGGGGSDIQMTQSPSSLSASVGDRVTITCSASSSVSYMNWYQQTPGKAPKRWIYDTSKLASGVPSRFSGSGSGTDYTFTISSLQPEDIATYYCQQWSSNPFTFGQGTKVEIKRGAAAEPKSCDKTHTCPPCPAPELLGGPSVFLFPPKPKDTLMISRTPEVTCVVVDVSHEDPEVKFNWYVDGVEVHNAKTKPREEQYNSTYRVVSVLTVLHQDWLNGKEYKCKVSNKALPAPIEKTISKAKGQPREPQVYTLPPSRDELTKNQVSLTCRVKGFYPSDIAVEWESNGQPENNYKTTPPVLKSDGSFFLASKLTVDKSRWQQGNVFSCSVMHEALHNHYTQKSLSLSPGK
notes: YBODY format; also called bispecific antibody M701C
One may read the Kd as a measure of binding affinity in units of concentration. Low readings indicate a tighter complex, high ones a looser complex. Take B2: the Kd in assay [2] stood at 37.2 nM; in assay [3], 18.6 nM.

B3: M701F (bispecific antibody, human IgG1, kappa)
light: ELVMTQSPSSLTVTAGEKVTMSCKSSQSLLNSGNQKNYLTWYQQKPGQPPKLLIYWASTRESGVPDRFTGSGSGTDFTLTISSVQAEDLAVYYCQNDYSYPLTFGAGTKLEIKRTVAAPSVFIFPPSDEQLKSGTASVVCLLNNFYPREAKVQWKVDNALQSGNSQESVTEQDSKDSTYSLSSTLTLSKADYEKHKVYACEVTHQGLSSPVTKSFNRGEC
heavy: EVQLLEQSGAELVRPGTSVKISCKASGYAFTNYWLGWVKQRPGHGLEWIGDIFPGSGNIHYNEKFKGKATLTADKSSSTAYMQLSSLTFEDSAVYFCARLRNWDEPMDYWGQGTTVTVSSASTKGPSVFPLAPSSKSTSGGTAALGCLVKDYFPEPVTVSWNSGALTSGVHTFPAVLQSSGLYSLSSVVTVPSSSLGTQTYICNVNHKPSNTKVDKKVEPKSCDKTHTCPPCPAPELLGGPSVFLFPPKPKDTLMISRTPEVTCVVVDVSHEDPEVKFNWYVDGVEVHNAKTKPREEQYNSTYRVVSVLTVLHQDWLNGKEYKCKVSNKALPAPIEKTISKAKGQPREPQVYTLPPSRDELTKNQVSLWCLVKGFYPSDIAVEWESNGQPENNYDTTPPVLDSDGSFFLYSDLTVDKSRWQQGNVFSCSVMHEALHNHYTQKSLSLSPGK
chain: QVQLVQSGAEVKKPGASVKVSCKASGYTFISYTMHWVRQAPGQGLEWMGYINPRSGYTHYNQKLKDKATLTADKSASTAYMELSSLRSEDTAVYYCARSAYYDYDGFAYWGQGTLVTVSSGGGGSGGGGSGGGGSDIQMTQSPSSLSASVGDRVTITCSASSSVSYMNWYQQKPGKAPKRLIYDTSKLASGVPSRFSGSGSGTDFTLTISSLQPEDFATYYCQQWSSNPPTFGGGTKVEIKRGAAAEPKSCDKTHTCPPCPAPELLGGPSVFLFPPKPKDTLMISRTPEVTCVVVDVSHEDPEVKFNWYVDGVEVHNAKTKPREEQYNSTYRVVSVLTVLHQDWLNGKEYKCKVSNKALPAPIEKTISKAKGQPREPQVYTLPPSRDELTKNQVSLTCRVKGFYPSDIAVEWESNGQPENNYKTTPPVLKSDGSFFLASKLTVDKSRWQQGNVFSCSVMHEALHNHYTQKSLSLSPGK
notes: YBODY format; also called bispecific antibody M701F
On to B3, for which the Kd in assay [2] came out at 61.3 nM; in assay [3], 17.9 nM.

B4: M701E (bispecific antibody)
light: ELVMTQSPSSLTVTAGEKVTMSCKSSQSLLNSGNQKNYLTWYQQKPGQPPKLLIYWASTRESGVPDRFTGSGSGTDFTLTISSVQAEDLAVYYCQNDYSYPLTFGAGTKLEIKRTVAAPSVFIFPPSDEQLKSGTASVVCLLNNFYPREAKVQWKVDNALQSGNSQESVTEQDSKDSTYSLSSTLTLSKADYEKHKVYACEVTHQGLSSPVTKSFNRGEC
heavy: EVQLLEQSGAELVRPGTSVKISCKASGYAFTNYWLGWVKQRPGHGLEWIGDIFPGSGNIHYNEKFKGKATLTADKSSSTAYMQLSSLTFEDSAVYFCARLRNWDEPMDYWGQGTTVTVSSASTKGPSVFPLAPSSKSTSGGTAALGCLVKDYFPEPVTVSWNSGALTSGVHTFPAVLQSSGLYSLSSVVTVPSSSLGTQTYICNVNHKPSNTKVDKKVEPKSCDKTHTCPPCPAPELLGGPSVFLFPPKPKDTLMISRTPEVTCVVVDVSHEDPEVKFNWYVDGVEVHNAKTKPREEQYNSTYRVVSVLTVLHQDWLNGKEYKCKVSNKALPAPIEKTISKAKGQPREPQVYTLPPSRDELTKNQVSLWCLVKGFYPSDIAVEWESNGQPENNYDTTPPVLDSDGSFFLYSDLTVDKSRWQQGNVFSCSVMHEALHNHYTQKSLSLSPGK
chain: not shown
notes: YBODY format; also called bispecific antibody M701E
The molecule B4 returned a Kd in assay [3] of 23.1 nM.

B5: M701D (bispecific antibody, human IgG1, kappa)
light: ELVMTQSPSSLTVTAGEKVTMSCKSSQSLLNSGNQKNYLTWYQQKPGQPPKLLIYWASTRESGVPDRFTGSGSGTDFTLTISSVQAEDLAVYYCQNDYSYPLTFGAGTKLEIKRTVAAPSVFIFPPSDEQLKSGTASVVCLLNNFYPREAKVQWKVDNALQSGNSQESVTEQDSKDSTYSLSSTLTLSKADYEKHKVYACEVTHQGLSSPVTKSFNRGEC
heavy: EVQLLEQSGAELVRPGTSVKISCKASGYAFTNYWLGWVKQRPGHGLEWIGDIFPGSGNIHYNEKFKGKATLTADKSSSTAYMQLSSLTFEDSAVYFCARLRNWDEPMDYWGQGTTVTVSSASTKGPSVFPLAPSSKSTSGGTAALGCLVKDYFPEPVTVSWNSGALTSGVHTFPAVLQSSGLYSLSSVVTVPSSSLGTQTYICNVNHKPSNTKVDKKVEPKSCDKTHTCPPCPAPELLGGPSVFLFPPKPKDTLMISRTPEVTCVVVDVSHEDPEVKFNWYVDGVEVHNAKTKPREEQYNSTYRVVSVLTVLHQDWLNGKEYKCKVSNKALPAPIEKTISKAKGQPREPQVYTLPPSRDELTKNQVSLWCLVKGFYPSDIAVEWESNGQPENNYDTTPPVLDSDGSFFLYSDLTVDKSRWQQGNVFSCSVMHEALHNHYTQKSLSLSPGK
chain: EVQLLESGGGLVQPGGSLRLSCAASGFTFSSFPMAWVRQAPGKGLEWVSTISTSGGRTYYRDSVKGRFTISRDNSKNTLYLQMNSLRAEDTAVYYCAKFRQYSGGFDYWGQGTLVTVSSGGGGSGGGGSGGGGSDIQLTQPNSVSTSLGSTVKLSCTLSSGNIENNYVHWYQLYEGRSPTTMIYDDDKRPDGVPDRFSGSIDRSSNSAFLTIHNVAIEDEAIYFCHSYVSSFNVFGGGTKLTVLRQPGAAAEPKSCDKTHTCPPCPAPELLGGPSVFLFPPKPKDTLMISRTPEVTCVVVDVSHEDPEVKFNWYVDGVEVHNAKTKPREEQYNSTYRVVSVLTVLHQDWLNGKEYKCKVSNKALPAPIEKTISKAKGQPREPQVYTLPPSRDELTKNQVSLTCRVKGFYPSDIAVEWESNGQPENNYKTTPPVLKSDGSFFLASKLTVDKSRWQQGNVFSCSVMHEALHNHYTQKSLSLSPGK
notes: YBODY format; also called bispecific antibody M701D
On to B5, for which the affinity in assay [3], expressed as Kd, was 14.4 nM.
